Legend:
[1] = Ketose 3-epimerase activity ratio (T70/T50) at reaction temperature of 70° C. to 50° C.; assay type: biochemical; conditions: crude recombinant enzyme; ratio of activity at 70° C. to activity at 50° C., 10 min reaction
Description: An enzyme having higher heat resistance than an amino acid substitution-free wild type enzyme can be obtained by introducing mutation into the gene of the ketose 3-epimerase of the present invention and substituting the corresponding amino acid residue with another amino acid residue by a site-directed mutagenesis operation to prepare various amino acid-substituted mutants. The heat resistance is evaluated by two indices, that is, a ketose 3-epimerase activity ratio (T70/T50) at the reaction temperatures of 70° C. to 50° C. and a residual activity after incubation at 60° C. for one hour.
Heat resistance of the present enzyme (crude recombinant enzyme) and the crude enzyme of the control enzyme was investigated by measuring an activity at 70° C. and an activity at 50° C. under the reaction conditions (10 minutes) used for determining the optimum temperature in the above 2 shown in Table 2 and finding their ratio (T70/T50).

[2] = Thermal stability: residual activity after incubation at 60° C. for one hour; assay type: biochemical; conditions: crude recombinant enzyme; after incubation at 60° C. for 1 hour
Description: Thermal stability of the enzyme was investigated by measuring the activity of the enzyme after incubation at 60° C. for one hour and finding its relative activity supposing that the activity at 60° C. under the reaction conditions (10 minutes) used for determining the optimum temperature in the above 2 shown in Table 2 was 100. As heat treatment conditions, the crude enzyme solution, a buffer (50 mM tris-HCl, pH 7.5), and 2 mM MgCl2 were used to give a total amount of 200 p1 and after retaining at 60° C. for one hour, the reaction mixture was cooled for 10 minutes in ice water. The residual enzyme activity was then measured by the conventional method.
The activity of each of the present enzyme (crude recombinant enzyme) and the crude enzyme of the control enzyme after incubation at 60° C. for 1 hour was measured and a relative activity of it was determined supposing that the activity at 60° C. under the reaction conditions (10 minutes) for determining the optimum temperature in the above 2 shown in Table 2 is 100. The relative activity was used as a heat resistance index of the enzyme. As heat treatment conditions, the crude enzyme solution, a buffer (50 mM tris-HCl, pH 7.5), and 2 mM MgCl2 were used to give a total amount of 200 p1 and after retaining at 60° C. for one hour, the reaction mixture was cooled for 10 minutes in ice water. The residual enzyme activity was measured by the conventional method.

Molecule	T70/T50 [1]	Residual activity (%) [2]
Ketose 3-epimerase mutant 18: amino acid-substituted mutant of SEQ ID NO: 1 (protein, Arthrobacter histidinolovorans) MKIGCHGLVWTGRFDAEGIRYSVQKTKEAGFDLIEFPLMDPFSFDVATAKSALAEHGLTASASLGLSEATDVSSEDPAIVKAGEELLNRALDVLAELGATEFCGVIYSAMKKYMEPATEQGLSNSKAAVGRVVDRAAGLGINVSLEVVNRYETNVLNTGRQALSYLSDVKRPNLGVHLDTYHMNIEESDMFSPVLDTAEALKYVHIGESHRGYLGTGSVDFDNFFKALGRIGYDGPVVFESFSSAVVAPDLSRMLGIWRNLWADNEELGAHANAFIRDKLTAIKTIELH	1.85	72.1%
Ketose 3-epimerase mutant 21: amino acid-substituted mutant of SEQ ID NO: 1 (protein, Arthrobacter histidinolovorans) MKIGCHGLVWTGRFDAEGIRYSVQKTKEAGFDLIEFPLMDPFSFDVATAKSALAEHGLSVSASLGLSEATDVSSEDPAIVKAGEELLNRALDVLAELGATEFCGVIYSAMKKYMEPATEQGLSNSKAAVGRVVDRAAGLGINVSLEVVNRYETNVLNTGRQALSYLSDVKRPNLGVHLDTYHMNIEESDMFSPVLDTAEALKYVHIGESHRGYLGTGSVDFDNFFKALGRIGYDGPVVFESFSSAVVAPDLSRMLGIWRNLWADNEELGAHANAFIRDKLTAIKTIELH	1.70	59.4%
Ketose 3-epimerase mutant 19: amino acid-substituted mutant of SEQ ID NO: 1 (protein, Arthrobacter histidinolovorans) MKIGCHGLVWTGRFDAEGIRYSVQKTKEAGFDLIEFPLMDPFSFDVATAKSALAEHGLSVSASLGLSEATDVSSEDPAIVKAGEELLNRALDVLAELGATDFCGVIYSAMKKYMEPATEQGLSNSKAAIGRVVDRAAGLGINVSLEVVNRYETNVLNTGRQALSYLSDVKRPNLGVHLDTYHMNIEESDMFSPVLDTAEVLKYVHIGESHRGYLGTGNVDFDNFFKALGRIGYDGPVVFESFSSAVVAPDLSRMLGIWRNLWADNEELGAHANAFIRDKLTAIKTIELH	1.85	91.2%
Ketose 3-epimerase mutant 26: amino acid-substituted mutant of SEQ ID NO: 1 (protein, Arthrobacter histidinolovorans) MKIGCHGLVWTGRFDAEGIRYSVQKTKEAGFDLIEFPLMDPFSFDVATAKSALAEHGLTASASLGLSEATDVSSEDPAIVKAGEELLNRALDVLAEMGATDFCGVIYSAMKKYMEPATEQGLSNSKAAVGRVVDRAAGLGINVSLEVVNRYETNVLNTGRQALSYLSDVKRPNLGVHLDTYHMNIEESDMFSPVLDTAEALKYVHIGESHRGYLGTGSVDFDNFFKALGRIGYDGPVVFESFSSAVVAPDLSRMLGIWRNLWADNEELGAHANAFIRDKLTAIKTIELH	1.65	68.9%
Ketose 3-epimerase mutant 23: amino acid-substituted mutant of SEQ ID NO: 1 (protein, Arthrobacter histidinolovorans) MKIGCHGLVWTGRFDAEGIRYSVQKTKEAGFDLIEFPLMDPFSFDVATAKSALAEHGLTASASLGLSEATDVSSEDPAIVKAGEELLNRALDVLAELGATDFCGVIYSAMKKYMEPATEQGLSNSKAAVGRVVDRAAGLGINVSLEVVNRYETNVLNTGRQALSYLSDVKRGNLGVHLDTYHMNIEESDMFSPVLDTAEALKYVHIGESHRGYLGTGSVDFDNFFKALGRIGYDGPVVFESFSSAVVAPDLSRMLGIWRNLWADNEELGAHANAFIRDKLTAIKTIELH	1.69	65.8%
Ketose 3-epimerase mutant 20: amino acid-substituted mutant of SEQ ID NO: 1 (protein, Arthrobacter histidinolovorans) MKIGCHGLVWTGRFDAEGIRYSVQKTKEAGFDLIEFPLMDPFSFDVATAKSALAEHGLSVSASLGLSEATDVSSEDPAIVKAGEELLNRALDVLAELGATDFCGVIYSAMKKYMEPATEQGLSNSKAAIGRVVDRAAGLGINVSLEVVNRYETNVLNTGRQALSYLSDVKRPNLGVHLDTYHMNIEESDMFSPVLDTAEALKYVHIGESHRGYLGTGSVDFDNFFKALGRIGYDGPVVFESFSSAVVAPDLSRMLGIWRNLWADNEELGAHANAFIRDKLTAIKTIELH	1.79	52.1%
Ketose 3-epimerase mutant 24: amino acid-substituted mutant of SEQ ID NO: 1 (protein, Arthrobacter histidinolovorans) MKIGCHGLVWTGRFDAEGIRYSVQKTKEAGFDLIEFPLMDPFSFDVATAKSALAEHGLTASASLGLSEATDVSSEDPAIVKAGEELLNRALDVLAELGATDFCGVIYSAMKKYMEPATEQGLSNSKAAVGRVVDRAAGLGINVSLEVVNRYETNVLNTGRQALSYLQDVKRPNLGVHLDTYHMNIEESDMFSPVLDTAEALKYVHIGESHRGYLGTGSVDFDNFFKALGRIGYDGPVVFESFSSAVVAPDLSRMLGIWRNLWADNEELGAHANAFIRDKLTAIKTIELH	1.68	55.4%
Ketose 3-epimerase mutant 25: amino acid-substituted mutant of SEQ ID NO: 1 (protein, Arthrobacter histidinolovorans) MKIGCHGLVWTGRFDAEGIRYSVQKTKEAGFDLIEFPLMDPFSFDVATAKSALAEHGLTASASLGLSEATDVSSEDPAIVKAGEELLNRALDVLAELGATDFCGVIYSAMKKYMEPATEQGLSNSKAAVGRVVDRAAGLGINVSLEVVNRYETNVLNTGRQALSYLSDVKRPNLGVHLDTYHMNIEESDMFSPVLDTAEALRYVHIGESHRGYLGTGSVDFDNFFKALGRIGYDGPVVFESFSSAVVAPDLSRMLGIWRNLWADNEELGAHANAFIRDKLTAIKTIELH	1.66	51.4%
Ketose 3-epimerase mutant 22: amino acid-substituted mutant of SEQ ID NO: 1 (protein, Arthrobacter histidinolovorans) MKIGCHGLVWTGRFDAEGIRYSVQKTKEAGFDLIEFPLMDPFSFDVATAKSALAEHGLSVSASLGLSEATDVSSEDSAIVKAGEELLNRALDVVAELGATEFCGVIYSSMKKYMEPATEQGLSNSKAAIGRVVDRAAGLGINVALEVVNRYETNVLNTGRQALSYLQDVKRPNLGVHLDTYHMNIEESDMFSPVLDTAEVLKYVHIGESHRGYLGTGNVDFDNFFKALGRIGYDGPVVFESFSSAVVAPDLSRMLGIWRNLWADNEELGAHANAFIRDKLTAIKTIELH	1.70	113.5%

Source: patent US20210395718A1, “NOVEL KETOSE 3-EPIMERASE” (NATIONAL UNIVERSITY CORPORATION KAGAWA UNIVERSITY, priority 2018, published 2021)
